{
  "source": "patent US20090053196",
  "tested_on": "FLAG-tagged UNC-45 (UNC-45^FLAG)",
  "data": [
    {"substance": "^mycCHN-1^ΔU-box", "values": [
      {"measurement": "in vitro ubiquitylation of UNC-45, Western blot", "result": "a CHN-1 version lacking the U-box, CHN-1^ΔU-box, was not able to ubiquitylate UNC-45"}
    ]}
  ]
}
